Experimental findings from article PMC4289673 (Proteins, 2014) are described below.

This series concerns the molecule itself. Briefly: crystal structure.

B1: R47A hACMSD (enzyme)
chain: not shown
Consider B1, for which the binding result is “binds”.
